Experiment [1] has as its target T1, biotinylated HLA B*3501/HCMV pp65 peptide … complex (Homo sapiens HLA-B*35:01 and B2M; HCMV …, strain, biotin (in vivo, BirA, AviTag)).
T1 construct: copies: + +
The experiment can be described thus: ELISA. The following applies: both partners purified. In general terms: ELISA stands for enzyme-linked immunosorbent assay.

The target of experiment [2] is T2, HLA A*0201 presenting HCMV pp65 peptide […] on cells (human HLA-A*02:01 and B2M; HCMV pp65 …, strain).
T2 construct: copies: + +
The experiment can be described thus: flow cytometry on cells. Conditions: one partner purified.

Experiment [3] addresses T3, biotinylated HLA A*0201/HCMV pp65 peptide […] complex (human HLA-A*02:01 and B2M; HCMV pp65 …, strain, biotin (in vivo, BirA, AviTag)).
T3 construct: copies: + +
Put plainly: ELISA. The following applies: both partners purified.

Experiment [4] deals with T4, HLA B*0702 presenting HCMV pp65 peptide … on cells (Homo sapiens HLA-B*07:02/B2M; HCMV pp65 …, strain).
T4 construct: copies: + +
The experiment can be described thus: flow cytometry on cells. Conditions: one partner purified. (Flow cytometry measures light scatter and fluorescence of single cells or particles in a stream.)

The target of experiment [5] is T5, biotinylated HLA B*0702/HCMV pp65 peptide … complex (Homo sapiens HLA-B*07:02/B2M; HCMV pp65 …, strain, biotin (in vivo, BirA, AviTag)).
T5 construct: copies: + +
The experiment can be described thus: ELISA. Conditions: both partners purified.

Experiment [6] concerns the target T6, HLA A*0201 on MRC-5 cells loaded with control peptide 13 (…, Trypanosoma cruzi KMP-11) (human HLA-A*02:01 and B2M; Trypanosoma …, strain).
T6 construct: copies: + +
Put plainly: flow cytometry on cells. Conditions: one partner purified.

Experiment [7] deals with T7, HLA A*0201 presenting the HCMV pp65 peptide […], on cells (human HLA-A*02:01 and B2M; HCMV pp65 …, strain).
T7 construct: copies: + +
The experiment can be described thus: flow cytometry on cells. Conditions: one partner purified.

Experiment [8] has as its target T8, HLA A*0101 presenting HCMV pp65 peptide […] on cells (human HLA-A*01:01 and B2M; HCMV pp65 …, strain).
T8 construct: copies: + +
The experiment can be described thus: flow cytometry on cells. Conditions: one partner purified.

The target in experiment [9] is T9, biotinylated HLA A*0101/HCMV pp65 peptide […] complex (human HLA-A*01:01 and B2M; HCMV pp65 …, strain, biotin (in vivo, BirA, AviTag)).
T9 construct: copies: + +
Put plainly: ELISA. Conditions: both partners purified.

Numbering of substitutions follows the chain as printed.

B1: Fab C5 (Fab, V domains shown)
VH: EVQLVQSGAEVKRPGASVKVSCKASGYTFTNYDINWVRQATGQGLEWMGWMNPNSGNTGYAQKFQGRVTITADKSTSTAYMELSSLRSEDTAVYYCARQGRLRFLEWYMFDPWGQGTLVTVSS
VL: DVVMTQSPLSLPVTPGEPASISCRSSQSLLHSNGYNYLDWYLQKPGQSPQLLIYLGSIRASGVPDRVTGSGSGTDFTLQISRVEAEDVGVYYCMQGLQTPYTFGQGTKLEIK
notes: source: E. coli TG1, purified (IMAC, Talon beads)
Take B1: the binding result in experiment [1] is “binds”.

B2: biotinylated Fab A11 (Fab, V domains shown)
VH: EVQLVQSGAEVKRPGASVKVSCKASGYTFTSYGIGWVRQAPGQGLEWMGWISAYSGNTNYAQNFQGRITMTTDTSTSTAYMELRSLRSDDTAVYYCARDFGKWDLPMYGMDVWGQGTTVTVSS
VL: QSVLTQPPSVSVAPGGTARISCGGNNIGTKNVHWYQQKPGQAPVLVMYYNSDRPAGIPERFSGSNSGNTATLTITRVEPGDEADYYCQVWDDRRDHYVFGTGTEVTVL
notes: source: E. coli TG1, biotinylated in vivo, purified (IMAC, Talon beads)
Consider B2, for which the binding result in [2] is recorded as “binds”.

B3: biotinylated Fab A9 (Fab, V domains shown)
VH: B2 VH with K12R, R13N, Y32H, G35N, V37L, F64L, G66D, I68V, T69S
VL: QSVLTQPPSVSAAPGQRVTISCSGSSSDIGKSGKNYVAWYQQLPGMAPKLLIHDTIKRPSGIPDRFSASKSGTSATLDITGLQTGDEGDYYCGTWNNNLSAYVFGTGTTITVL
notes: as for B2
Consider B3, for which, in experiment [2], the binding result is “binds”.

B4: Fab A11 (Fab, V domains shown)
VH: B2 VH
VL: B2 VL
notes: as for B1
Turning to B4, the binding result in experiment [3] is reported as “binds”.

B5: Fab A9 (Fab, V domains shown)
VH: B2 VH with K12R, R13N, Y32H, G35N, V37L, F64L, G66D, I68V, T69S
VL: B3 VL
notes: as for B1
In the case of B5, the binding result in [3] was “binds”.

B6: biotinylated Fab C7 (Fab, V domains shown)
VH: EVQLVQSGAEVKKPGASVKVSCKASGYTFTSYYMHWVRQAPGQGLEWMGIINPSDGSTSYAQKFQGRVTMTRDTSTSTAYMELSSLRSEDTAVYYCARYIGIMDVWGQGTTVTVSS
VL: not shown
notes: as for B2
For B6, the binding result in [4] is given as “binds”.

B7: Fab C7 (Fab, V domains shown)
VH: B6 VH
VL: not shown
notes: as for B1
As for B7, the binding result in experiment [5] is given as “binds”.

B8: Fab C7 tetramer (Fab, V domains shown)
VH: B6 VH
VL: not shown
notes: copies: 4 + 4
Take B8: the binding result in experiment [4] is given as “binds”.

B9: biotinylated Fab D10 (Fab, V domains shown)
VH: EVQLVQSGGGVVQPGRSLRLSCAASGFTFSSYGMHWVRQAPGKGLEWVAVISYDGTNTDYADSVKGRFTISRDNSKNTLYLQMNSLRAEDTAVYYCARARGIGVSGTLYFDFWGQGTLVTVSS
VL: EIVMTQSPGTLSLSPGERATLSCRASQSVSSSYLAWYQQKPGQAPRLLIYGASTRATGIPDRFSGSGSGTDFTLTINRLEPEDFAVYYCQQYGSSPGTFGQGTRLEIK
notes: as for B2
B9: the binding result in [4] was “binds”.

B10: Fab D10 (Fab, V domains shown)
VH: B9 VH
VL: B9 VL
notes: as for B1
B10: the binding result in experiment [5] was “binds”.

B11: C1-ETA´ immunotoxin (HLA A*0201-restricted, HCMV-specific Fab antibody C1 coupled to Pseudomonas Exotoxin A) (Fab, V domains shown)
VH: EVQLVQSGAEVKKPGSSVKVSCKASGGTFSSYAISWVRQAPGQGLEWMGGIIPIFGTANYAQKFQGRVTITADESTSTAYMELSSLRSEDTAVYYCARGLAAPDYFDYWGQGTLVTVSS
VL: QSVVTQPPSVSGAPGQRVTISCTGSSSNIGAGYDVHWYQQLPGTAPKLLIYGNSNRPSGVPDRFSGSKSGTSASLAITGLQAEDEADYYCQSYDSSLSGPFYVFGTGTKVTVL
notes: source: E. coli TG1
With B11, the binding result is reported as “no binding (tested: 50 µg/ml)” in experiment [6] and “binds” in experiment [7].

B12: biotinylated Fab F3 (Fab, V domains shown)
VH: QVQLVQSGAEVKKPGASVKVSCKASGYTFTSYYMHWVRQAPGQGLEWMGIINPSGGSTSYAQKFQGRVTMTRDTSTSTVYMELSSLRSEDTAVYYCASGITGAHDYWGQGTLVTVSS
VL: B11 VL with G52E, N55I, S72A, D87E, S95N, F101N, Y102W, T106G, V110L
notes: as for B2
B12: the binding result in experiment [8] is reported as “binds”.

B13: biotinylated Fab C1 (Fab, V domains shown)
VH: B11 VH
VL: B11 VL
notes: as for B2
As to B13, the binding result in experiment [2] was “binds”.

B14: Fab F3 tetramer (Fab, V domains shown)
VH: B12 VH
VL: B11 VL with G52E, N55I, S72A, D87E, S95N, F101N, Y102W, T106G, V110L
notes: copies: 4 + 4
Turning to B14, the binding result in experiment [8] was “binds”.

B15: Fab C1 (Fab, V domains shown)
VH: B11 VH
VL: B11 VL
notes: as for B1
B15: the binding result in experiment [3] is on record as “binds”.

B16: Fab C1 tetramer (Fab, V domains shown)
VH: B11 VH
VL: B11 VL
notes: copies: 4 + 4
Turning to B16, the binding result in experiment [2] was “binds”.

B17: Fab F3 (Fab, V domains shown)
VH: B12 VH
VL: B11 VL with G52E, N55I, S72A, D87E, S95N, F101N, Y102W, T106G, V110L
notes: as for B1
With B17, the binding result in experiment [9] is recorded as “binds”.

B18: Fab A6 (Fab, V domains shown)
VH: EVQLVQSGAEVKKPGASVKVSCKASGYTFTSYYMHWVRQSPGQGLEWMGIINPSGGSTSYAQKFQGRVTMTRDTSTSTVYMELSSLRSEDTAVYYCARNGYCSSTSCYDAFDIWGQGTMVTVSS
VL: QSALTQPASVSGSPGQSITISCTGTSSDVGGYNYVSWYQQHPGKAPKVLIYDVNQRISGVPDRFSGSKSGNTASLTISGLQAEDEADYYCCSYAGSSSWVFGGGTRLTVL
notes: as for B1
Turning to B18, the binding result in [9] is reported as “binds”.

B19: biotinylated Fab A6 (Fab, V domains shown)
VH: B18 VH
VL: B18 VL
notes: as for B2
For the molecule B19, the binding result in experiment [8] is on record as “binds”.

B20: Fab A6 tetramer (Fab, V domains shown)
VH: B18 VH
VL: B18 VL
notes: copies: 4 + 4
Take B20: the binding result in experiment [8] is on record as “binds”.
